The results in this text go back to paper PMC3899018, “Biochemical and Structural Studies of Conserved Maf Proteins Revealed Nucleotide Pyrophosphatases with a Preference for Modified Nucleotides” (Chemistry & Biology, 2013).

Common to all, as to experiment: pyrophosphatase-coupled Pi release assay
Substrate in series [1]: O=c1ccn([C@@H]2O[C@H](COP(=O)(O)OP(=O)(O)OP(=O)(O)O)[C@@H](O)[C@H]2O)c(=O)[nH]1
The class given is biochemical, Saccharomyces cerevisiae. The following applies: 2 mM Co2+, 30°C. An excerpt:
(§1) pyrophosphatase-coupled Pi release assay on YOR111W

Substrate in series [2]: Cc1cn([C@@H]2O[C@H](COP(=O)(O)OP(=O)(O)OP(=O)(O)O)[C@@H](O)[C@H]2O)c(=O)[nH]c1=O
The series is classed as biochemical, Saccharomyces cerevisiae. Conditions: 2 mM Co2+, 30°C.
Source text: as §1

Substrate in series [3]: O=c1[nH]cc([C@@H]2O[C@H](COP(=O)(O)OP(=O)(O)OP(=O)(O)O)[C@@H](O)[C@H]2O)c(=O)[nH]1
The class given is biochemical, Saccharomyces cerevisiae. The following applies: 2 mM Co2+, 30°C.
Source text: as §1

Substrate in series [4]: Nc1ccn([C@@H]2O[C@H](COP(=O)(O)OP(=O)(O)OP(=O)(O)O)[C@@H](O)[C@H]2O)c(=O)n1
The class given is biochemical, Bacillus subtilis. The following applies: 2 mM Co2+, 30°C. The source says:
(§2) pyrophosphatase-coupled Pi release assay on BSU28050

Substrate in series [5]: Cc1cn([C@@H]2O[C@H](COP(=O)(O)OP(=O)(O)OP(=O)(O)O)[C@@H](O)[C@H]2O)c(=O)[nH]c1=O
The class given is biochemical, Bacillus subtilis. Conditions: 2 mM Co2+, 30°C.
Source text: as §2

Substrate in series [6]: O=c1[nH]cc([C@@H]2O[C@H](COP(=O)(O)OP(=O)(O)OP(=O)(O)O)[C@@H](O)[C@H]2O)c(=O)[nH]1
The series is classed as biochemical, Bacillus subtilis. Conditions: 2 mM Co2+, 30°C.
Source text: as §2

Substrate in series [7]: Cc1cn([C@@H]2O[C@H](COP(=O)(O)OP(=O)(O)OP(=O)(O)O)[C@@H](O)[C@H]2O)c(=O)nc1N
The class given is biochemical, Bacillus subtilis. The following applies: 2 mM Co2+, 30°C.
Source text: as §2

Substrate in series [8]: C[n+]1cn([C@@H]2O[C@H](COP(=O)(O)OP(=O)(O)OP(=O)(O)O)[C@@H](O)[C@H]2O)c2nc(N)[nH]c(=O)c21
The class given is biochemical, Escherichia coli. The following applies: 2 mM Co2+, 37°C. The source says:
pyrophosphatase-coupled Pi release assay on YceF

Substrate in series [9]: Nc1ccn([C@@H]2O[C@H](COP(=O)(O)OP(=O)(O)OP(=O)(O)O)[C@@H](O)[C@H]2O)c(=O)n1
The series is classed as biochemical, Homo sapiens. The following applies: 2 mM Co2+, 37°C. An excerpt:
(§3) pyrophosphatase-coupled Pi release assay on ASMTL-Maf

Substrate in series [10]: CNc1ccn([C@H]2C[C@H](O)[C@@H](COP(=O)(O)OP(=O)(O)OP(=O)(O)O)O2)c(=O)n1
The class given is biochemical, Homo sapiens. The following applies: 2 mM Co2+, 37°C.
Source text: as §3

Substrate in series [11]: Nc1nc2c([nH]c(=O)n2[C@@H]2O[C@H](CO[P@@](=O)(O)O[P@@](=O)(O)OP(=O)(O)O)[C@@H](O)[C@H]2O)c(=O)[nH]1
The series is classed as biochemical, Homo sapiens. The following applies: 2 mM Co2+, 37°C.
Source text: as §3

Substrate in series [12]: Cc1cn([C@@H]2O[C@H](COP(=O)(O)OP(=O)(O)OP(=O)(O)O)[C@@H](O)[C@H]2O)c(=O)[nH]c1=O
The series is classed as biochemical, Homo sapiens. The following applies: 2 mM Co2+, 37°C.
Source text: as §3

Substrate in series [13]: Cc1cn([C@@H]2O[C@H](COP(=O)(O)OP(=O)(O)OP(=O)(O)O)[C@@H](O)[C@H]2O)c(=O)[nH]c1=O
The series is classed as biochemical, Escherichia coli. Conditions: 2 mM Co2+, 37°C. An excerpt:
(§4) pyrophosphatase-coupled Pi release assay on YhdE

Substrate in series [14]: Cc1cn([C@H]2C[C@H](O)[C@@H](COP(=O)(O)OP(=O)(O)OP(=O)(O)O)O2)c(=O)[nH]c1=O
The class given is biochemical, Escherichia coli. Conditions: 2 mM Co2+, 37°C.
Source text: as §4

Substrate in series [15]: O=c1[nH]cc([C@@H]2O[C@H](COP(=O)(O)OP(=O)(O)OP(=O)(O)O)[C@@H](O)[C@H]2O)c(=O)[nH]1
The series is classed as biochemical, Escherichia coli. The following applies: 2 mM Co2+, 37°C.
Source text: as §4

Substrate in series [16]: Cc1cn([C@@H]2O[C@H](COP(=O)(O)OP(=O)(O)OP(=O)(O)O)[C@@H](O)[C@H]2O)c(=O)nc1N
The class given is biochemical, Escherichia coli. The following applies: 2 mM Co2+, 37°C.
Source text: as §4

Substrate in series [17]: C[n+]1cn([C@@H]2O[C@H](COP(=O)(O)OP(=O)(O)OP(=O)(O)O)[C@@H](O)[C@H]2O)c2nc(N)[nH]c(=O)c21
The class given is biochemical, Salmonella enterica. Conditions: 2 mM Co2+, 37°C. An excerpt: pyrophosphatase-coupled Pi release assay on STM1189

B1: YOR111W (Saccharomyces cerevisiae S288C) (protein)
chain: MSGNSQLPPDVIGFICSKYDIILASTSPRRYEILHDIMGITDLKTMVSTFEENLDKMNYSTDPIGYVCDTSWHKAQNIIEILTDYEDENPNEIDKPKLIICADTIIIDKSGRIYEKPKTKEVQKKFLMKFCYEDDEPVNVVTAVTLIKWYGRENFELVPFRDETKVYFDNKIPLRILEEYVESGDGLEVGGGFKIQGQGAILIEKIEGDYYNVVGLPLNKTFKGLYAEANSI
notes: full-length recombinant, expressed in E. coli
For the protein B1, in series [1], the Km (usually the substrate concentration at which the rate is half of its maximum) is 29.7 ± 1.4 µM; the kcat (commonly the maximal rate divided by the concentration of active sites) was 2.6 ± 0.1 s⁻¹; the kcat/Km (as a rule, the second-order rate constant that governs catalysis at low substrate concentration) turned out to be 88000 M⁻¹ s⁻¹. Also, in series [2], the Km worked out at 13.0 ± 0.3 µM, the kcat came to 2.2 ± 0.1 s⁻¹ and the kcat/Km was determined as 170000 M⁻¹ s⁻¹. In addition, in [3], the Km was 20 ± 0.4 µM, the kcat was 5.3 ± 0.1 s⁻¹ and the kcat/Km amounted to 270000 M⁻¹ s⁻¹.

B2: BSU28050 (Bacillus subtilis subsp. subtilis str. 168) (protein)
chain: MTKPLILASQSPRRKELLDLLQLPYSIIVSEVEEKLNRNFSPEENVQWLAKQKAKAVADLHPHAIVIGADTMVCLDGECLGKPQDQEEAASMLRRLSGRSHSVITAVSIQAENHSETFYDKTEVAFWSLSEEEIWTYIETKEPMDKAGAYGIQGRGALFVKKIDGDYYSVMGLPISKTMRALRHFDIRA
notes: full-length recombinant, expressed in E. coli; dimer
For B2, the Km turned out to be 25.0 ± 0.8 µM in series [4], 4.7 ± 0.2 µM in series [5], 5.7 ± 0.3 µM in series [6] and 7.8 ± 0.2 µM in [7]. Moreover, the kcat in series [4] is 7.1 ± 0.1 s⁻¹; in series [5], 2.4 ± 0.1 s⁻¹; in series [6] it was 7.2 ± 0.2 s⁻¹; in series [7] it was 8.5 ± 0.1 s⁻¹. In addition, the kcat/Km in series [4] is 280000 M⁻¹ s⁻¹; in series [5], 510000 M⁻¹ s⁻¹; in series [6], 1.3e+06 M⁻¹ s⁻¹; in series [7], 1.1e+06 M⁻¹ s⁻¹.

B3: YceF (Escherichia coli K-12) (protein)
chain: MPKLILASTSPWRRALLEKLQISFECAAPEVDETPRSDESPRQLVLRLAQEKAQSLASRYPDHLIIGSDQVCVLDGEITGKPLTEENARLQLRKASGNIVTFYTGLALFNSANGHLQTEVEPFDVHFRHLSEAEIDNYVRKEHPLHCAGSFKSEGFGITLFERLEGRDPNTLVGLPLIALCQMLRREGKNPLMG
notes: full-length recombinant, expressed in E. coli; mixture of monomers and dimers
Take B3: in [8], the Km came out at 32.8 ± 3.1 µM, the kcat is 1.2 ± 0.1 s⁻¹ and the kcat/Km was found to be 37000 M⁻¹ s⁻¹.

B4: ASMTL-Maf (Homo sapiens) (protein)
chain: MVLCPVIGKLLHKRVVLASASPRRQEILSNAGLRFEVVPSKFKEKLDKASFATPYGYAMETAKQKALEVANRLYQKDLRAPDVVIGADTIVTVGGLILEKPVDKQDAYRMLSRLSGREHSVFTGVAIVHCSSKDHQLDTRVSEFYEETKVKFSELSEELLWEYVHSGEPMDKAGGYGIQALGGMLVESVHGDFLNVVGFPLNHFCKQLVKLYYPPRPEDLRRSVKHDSIPAADTFEDLS
notes: N-terminal Maf domain, residues 1-239, recombinant from E. coli; dimer
As to B4, the Km stood at 17.4 ± 0.8 µM in [9], 10.3 ± 0.7 µM in [10], 10.7 ± 0.6 µM in series [11] and 16.1 ± 1.5 µM in series [12]. Further, the kcat in series [9] amounted to 0.8 ± 0.02 s⁻¹; in [10] it was 0.3 ± 0.01 s⁻¹; in [11], 0.2 ± 0.01 s⁻¹; in series [12], 1.5 ± 0.1 s⁻¹. Moreover, the kcat/Km worked out at 46000 M⁻¹ s⁻¹ in series [9], 29000 M⁻¹ s⁻¹ in [10], 19000 M⁻¹ s⁻¹ in series [11] and 93000 M⁻¹ s⁻¹ in series [12].

B5: YhdE (Escherichia coli K-12) (protein)
chain: MTSLYLASGSPRRQELLAQLGVTFERIVTGIEEQRQPQESAQQYVVRLAREKARAGVAQTAKDLPVLGADTIVILNGEVLEKPRDAEHAAQMLRKLSGQTHQVMTAVALADSQHILDCLVVTDVTFRTLTDEDIAGYVASDEPLDKAGAYGIQGLGGCFVRKINGSYHAVVGLPLVETYELLSNFNALREKRDKHDG
notes: full-length recombinant, expressed in E. coli; predicted monomer mass 24 kDa; mixture of dimers and tetramers
As to B5, the Km amounted to 32.0 ± 2.2 µM in series [13], 53.0 ± 2.0 µM in series [14], 47.2 ± 1.5 µM in [15] and 44.8 ± 2.2 µM in series [16]. For the same protein, the kcat in series [13] amounted to 18.2 ± 0.7 s⁻¹; in series [14] it was 15.4 ± 0.3 s⁻¹; in series [15] it was 10.5 ± 0.2 s⁻¹; in [16] it was 9.2 ± 0.2 s⁻¹. Besides, the kcat/Km stood at 570000 M⁻¹ s⁻¹ in series [13], 290000 M⁻¹ s⁻¹ in series [14], 220000 M⁻¹ s⁻¹ in series [15] and 210000 M⁻¹ s⁻¹ in series [16].

B6: STM1189 (Salmonella enterica subsp. enterica serovar Typhimurium str. LT2) (protein)
chain: MPRLILASTSPWRRALLEKLTIPFECAAPDVDETPMPGEAPRQLVLRLAQAKAQSLAARFPNHLIIGSDQICVLDGEITGKPLTEEKARQQLAKASGNIVTFYTGLALYNSASGHLQTEVEPFDVHFRHLSEAEIDDYVRKEHPLHCAGSFKSEGLGIALFERLEGRDPNTLIGLPLIALCQMLRREGFNPLQQ
notes: as for B1
For the protein B6, in series [17], the Km is 30.9 ± 1.2 µM, the kcat stood at 1.5 ± 0.1 s⁻¹ and the catalytic efficiency (kcat/Km) came to 49000 M⁻¹ s⁻¹.
